# Measured values: the supplement of paper PMC10126150
# ± gives the standard deviation of the averaged measurements.
# Tested on: ATP
# Experiment: switch fluorescence ratio, 500 uM ATP over buffer (Cy3 cluster intensity, sum of 5 cycles each) (fold (ratio)); higher = stronger signal-on switching upon ATP binding; sequences stand for … in TCGTCGGCAGCGTCAGATGTGTATAAGAGACAGTTTTTTTTTTTTTTTTTTTTTTTTT…TC
# Conditions: aptamer strand: ATP DNA aptamer (quencher-CACCTGGGGGAGTATTGCGGAGGAAGG + anchor), 100 nM annealed; ATP concentration: 500 uM
# Method in brief: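 Clusters carrying Cy3-labelled switching strands on a modified Illumina MiSeq flow-cell were annealed to 100 nM quencher-labelled ATP aptamer and imaged in selection buffer. They were imaged again after 15 min with 500 uM ATP at 22 °C, over five buffer/ATP cycles with NaOH stripping and re-annealing in between. For each cluster, the fluorescence ratio is the summed Cy3 intensity of the target cycles divided by that of the buffer cycles, averaged per switch-domain sequence. Clusters outside 100-1000 RFU were left out.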
# 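Note: ATP exposure 15 min at 22 °C before imaging.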
row,Sequence,switch fluorescence ratio
1,ACCGTATGGC,1.02 ± 0.023
2,GTTTGGGTAG,1.02 ± 0.034
3,TTATGCAGGG,1.01 ± 0.012
4,TTAGTACGAT,1.018 ± 0.0096
5,TTGCACGTAA,1.66 ± 0.42
6,ACGAGGTAAG,1.079 ± 0.0031
7,GGGGGGGGCT,1 ± 0.045
8,TCAGGGTTGG,0.978 ± 0.024
9,ATAGCTTCAC,1.15 ± 0.015
10,CGTCTGGTGC,1.03 ± 0.029
11,GCCGTCTTGA,1.01 ± 0.041
12,CAAGGATTAA,1.006 ± 0.0012
13,TTCGGTTGGG,0.986 ± 0.029
14,GGTCTGTTTC,1.01 ± 0.015
15,TTAGGGTATG,1.03 ± 0.029
16,CACTGGTGGC,1.06 ± 0.022
17,TACAGAGTTT,0.977 ± 0.015
18,AAGCTAAAAT,0.996 ± 0.053
19,AATTGCCTGT,0.933 ± 0.071
20,TCGTTTGGTC,0.986 ± 0.01
21,AGATGCATGG,1.02 ± 0.025
22,TTTTGTTGGT,1 ± 0.028
23,GTGGAATTTT,1.01 ± 0.0057

row,Sequence,switch fluorescence ratio
1,ATGTTTTGTA,1 ± 0.0053
2,ATCATAGCGG,1 ± 0.015
3,AACGTACTTG,1.54 ± 0.044
4,TAAATCTCTG,1.004 ± 0.0055
5,CAGTGGGGTA,0.966 ± 0.012
6,ATAAACGACT,1.06 ± 0.024
7,CGTGGGGGT,0.996 ± 0.035
8,ATTGAGTTTA,0.99883 ± 7e-05
9,GGGAATTCTG,0.985 ± 0.023
10,GAGATTGCGC,1.02 ± 0.046
11,GTGGGGGGAT,0.999 ± 0.023
12,AGCAAAGAGC,0.99 ± 0.037
13,TTTGCCCTTT,1.24 ± 0.32
14,TTTGGCCCCG,0.9612 ± 0.0093
15,GGGATATTAG,0.994 ± 0.034
16,TGTCGGGCCT,1.03 ± 0.042
17,GATTGAATAT,0.983 ± 0.032
18,TTGCAAGTTG,1.01 ± 0.021
19,AAAAGTCGCT,1.03 ± 0.025
20,GGGGAGCGGC,1.02 ± 0.0027
21,TTTTTCCTAC,1 ± 0.016
22,TTGCTATGAA,1.01 ± 0.054
23,GAGCCATTTT,0.991 ± 0.041

row,Sequence,switch fluorescence ratio
1,CAGAGGAAGT,1.02 ± 0.04
2,TGTTTCTCGA,0.9619 ± 0.0041
3,TGTCCTGGCT,1.02 ± 0.067
4,CAAGTAGGGG,0.9765 ± 0.0015
5,GCAATCGGGA,1.2 ± 0.087
6,CTCTGACGGC,1.12 ± 0.12
7,GCAAAATTTC,1.02 ± 0.085
8,CAGCTACGTG,1.0258 ± 0.00037
9,TTAGGGTGTT,1 ± 0.07
10,GGGAATTGGT,0.979 ± 0.02
11,AGTTCGGTTT,0.9581 ± 0.0039
12,TCGCTTGCGG,1 ± 0.032
13,ATGCTATGGT,0.987 ± 0.013
14,CCATGAACAT,1 ± 0.028
15,ATTTTCACC,1.0095 ± 0.00081
16,CAAAACTACT,1.06 ± 0.011
17,CGTGCGTGTA,1.02 ± 0.053
18,GGACTCAGGG,1.03 ± 0.051
19,TTTTAGGAGA,1.02 ± 0.026
20,ATGGAGTGTG,0.989 ± 0.02
21,CTGAGAGACA,0.991 ± 0.04
22,CATGTGTTGT,0.987 ± 0.014
23,TCGAATGGCC,0.994 ± 0.024

row,Sequence,switch fluorescence ratio
1,CTAAAGACTC,1.19 ± 0.046
2,GTTTAAAAGC,0.9842 ± 0.0061
3,GACGGGATGG,0.993 ± 0.056
4,TCTTATCTTG,0.978 ± 0.037
5,CATGGTCATT,1 ± 0.019
6,AGAAACAGGA,1.04 ± 0.04
7,AGCTTAAGGG,0.967 ± 0.02
8,ACTACTGGGA,0.976 ± 0.041
9,CTTGGGCCCT,0.979 ± 0.033
10,AAAGTGGGGA,1.03 ± 0.038
11,CGGGTAAGT,1 ± 0.022
12,TGCGGTAATT,1.14 ± 0.16
13,TGGAGATTGT,0.943 ± 0.032
14,AATAAGTTAA,1 ± 0.026
15,CGGATGGATC,1.02 ± 0.041
16,GGAAACTGGT,1.05 ± 0.069
17,TTTAATAATT,1.03 ± 0.032
18,TATTTCCTGT,0.993 ± 0.011
19,GGGGGCGCAA,1.129 ± 0.011
20,CTTGTTATTG,0.9602 ± 0.0071
21,TTGGTTTATC,1 ± 0.015
22,TTATATGGGA,1.01 ± 0.018
23,TACAATTTTG,1.013 ± 0.0017

row,Sequence,switch fluorescence ratio
1,TGACGGGGCG,1.03 ± 0.05
2,CGGTTAACGT,1.01 ± 0.033
3,TTATTCCATA,0.98429 ± 0.00091
4,CGGTGGGACG,1.02 ± 0.022
5,TTATGGCTGA,0.988 ± 0.017
6,AAGATTGAGC,0.937 ± 0.022
7,AGCTTCAGGG,1.01 ± 0.037
8,TAGGGCCGTG,0.977 ± 0.0059
9,AAAGTTTCCG,1 ± 0.0018
10,CGCTCCCATT,1.46 ± 0.024
11,ACACGGGGCT,1.01 ± 0.051
12,AAATTACGGG,1.045 ± 0.0046
13,TGGCTCTGGG,1.04 ± 0.033
14,TATAGAAAAT,1.03 ± 0.026
15,TAGGGGTAGG,1.02 ± 0.021
16,CCAGGCAAGG,1.18 ± 0.019
17,GCTGGGACGT,1 ± 0.025
18,GATGTAGGAG,0.971 ± 0.019
19,TTTAGTGAAT,0.9966 ± 0.0051
20,TTACGAGGCG,1.004 ± 0.0032
21,AAGATAGAAC,0.9783 ± 0.0068
22,TATTAGGCGC,0.982 ± 0.022
23,AAATGGGGGG,0.974 ± 0.017

row,Sequence,switch fluorescence ratio
1,TATGTTGGAT,0.988 ± 0.012
2,ACGTGCTCGT,0.991 ± 0.041
3,TCGCGTTTCT,1.03 ± 0.088
4,GCTGATTTTT,0.994 ± 0.025
5,TGTGGCCGTT,1.03 ± 0.059
6,TACGAACTAT,1.33 ± 0.052
7,GAGATCGTGC,0.96 ± 0.018
8,GGGGGGGAGA,1.02 ± 0.029
9,TTTTTGGGTG,1.03 ± 0.058
10,TTCTTGTAAT,1.014 ± 0.003
11,TATGTCTCTT,1.02 ± 0.021
12,CTTCGTATGG,1 ± 0.029
13,ATTCGGGATA,1 ± 0.02
14,GTAGTATTAT,0.991 ± 0.035
15,TAAAAATAGC,1.024 ± 0.0095
16,ATTGTTCTCC,1.04 ± 0.057
17,ATTTTTGGTT,1.01 ± 0.042
18,GTTTATTGTT,1 ± 0.047
19,TTTGGGAA,1.03 ± 0.015
20,CGAGAGAGTG,0.96 ± 0.02
21,AATCGTTAGG,0.969 ± 0.022
22,TTTTTAAACG,0.995 ± 0.014
23,AGCTCGGTCG,0.963 ± 0.017

row,Sequence,switch fluorescence ratio
1,ATGAAGTTGT,1.019 ± 0.01
2,GTTAGATGTT,1 ± 0.011
3,AGCGAGAGGG,0.974 ± 0.031
4,GCTTTTGGAG,1.008 ± 0.0047
5,CCGTGCGAAA,2.99 ± 0.59
6,CTGATATTGT,0.9844 ± 0.0066
7,TTATATAAGT,1.02 ± 0.023
8,GATATTGGTG,1.024 ± 0.003
9,CGCGACGGGG,1.03 ± 0.029
10,GAGCTGTGGG,0.971 ± 0.039
11,ACGGGTACGC,1.01 ± 0.021
12,GGGGAAGGTG,1.79 ± 1
13,TTTAATCATT,1 ± 0.029
14,ATAAAATTTA,1.04 ± 0.03
15,AGAGGGGGTG,0.96 ± 0.013
16,AACGGACGCT,1.16 ± 0.064
17,GGTGTGTGTT,0.9951 ± 0.0078
18,GCTCGCAGAT,1.21 ± 0.042
19,TCCTAAGGGC,1.04 ± 0.038
